# From the nanobody polyreactivity screen of Harvey et al. (2022)
# Assay: yeast display, Sf9 membrane polyspecificity reagent, FACS + sequencing; frameworks hold sequencing errors
# Method in brief: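 Nanobodies from a synthetic yeast display library (Saccharomyces cerevisiae BJ5465), induced 36–48 hours with galactose, were stained 1 hour at 4 °C with 10% biotinylated, detergent-solubilized Sf9 membrane reagent, enriched on streptavidin microbeads, then FACS-sorted. Anti-HA (expression) and streptavidin (reagent binding) fluorescence set low and high (top ~1%) gates. Polyreactivity labels come from the gate of origin. Genes were colony-PCR amplified, MiSeq 2 × 250 sequenced and filtered by CDR length.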
row,Sequence,polyreactivity (PSR sort gate)
1,QVQLVESGGGLVQAGGSLRLSCAASGGIFYTNAMGWYRQAPGKERELVAAISRSGGSTYYADSVKGRFTISRDNAKNTVYLQMNSLKPEDTAVYYCAARVYVYGYSYDYWGQGTQVTVSS,high polyreactivity
2,QVQLVESGGGLVQAGGSLRLSCAASGGTFNGNTMGWYRQAPGKERELVAVIDWSGGSTYYADSVKGRFTISRDNAKNTVYLQMNSLKPEDTAVYYYNADSDAQFREPKGLYYWGQGTQVTVSS,low polyreactivity
3,QVQLVESGVGLVQAGGSLRLSCAASGRTFRANAMGWYRQAPGKERELVAAITWDGGSTYYADSVKGRFTISRDNAKNTVYLLMYSLKPEDTAVYYCNTYPYLWGQGTQVTLSS,low polyreactivity
4,QVQLVESGGGLVQAGGSLRLSCAGSGSSFSNYAMRGYRQATGKERELVAVITTGASTYYADSLKGRFTISRDNAKNTVYLQLNSLKPEDSAVYACAKGKISRETPGIYWSYSYGYWGQGTQVTVSS,high polyreactivity
5,QVQLVESGGGLVQAGGSLRLSCAASGRTFVYYAMGWYRQAPGKERELVAAISTGGSTNYADSVKGRFTISRDNAKNTVYLQMNSLKPEDTAVYYCAAQYYISISKYDYWGQGTQVTVSS,low polyreactivity
6,QVQLVESGGGLVQAGGSLRLICAASGSIFRPNAMGWYRQAPGKEREFVASISGRVGSTYYADSVKGRFTISRDNAKNTVYLQMNSLKPEDTAVYYCAADFPTDKLSNFPITEYGYWGQGTQVTVSS,high polyreactivity
7,QVQLVESGGGLVQAGGTLRLICAASGRISLRNGMGWYRQAPRKERELVAAITSGSSTDYADSVKGRFTISRDNAKNTVYLQMNSLKPEDTAVYYCAKDLLQSGPGAGRYDYWGQGTQVTVSS,low polyreactivity
8,QVQLVESGGGLVQAGGSLRLSCAASGLTFYRYAMGWYRQAPGKERELVAAIRSNVVTTYYADSVKGRFTISRDNAKNTVYLQMNSLKPEDTAVYYCNAVSYSFPIHRVRPTWYDYWGQGTQVTVSS,high polyreactivity
9,QVQLVESGGGLVQAGGSLRLSSDASGFIFSFNALGWYRQAPGKERELVAAISRSGGSTRYADSVKGRFTISRDNAKNTVYLQMNSLKPEDTAVYYCANRFASYRYHPGYDYWGQGTQVTVSS,high polyreactivity
10,QVQLVESGGGLVLAGGSLRLSCAASGITFRNYAMGWYRQAPGKEMEFVATISRRAGSTYYADSVKGRFTISRDNAKNTVYLQMNSLKPEDTAVYYCVTYRNWWYDYWGQGTQVTVSS,high polyreactivity
11,QVQLVESGKGLVQAGGSLRLSCAASGITITIYAMGWYRNAPGKERELVAAITWRGGRTYYADSVKGRFTISRDNAKNTVYLQMNSLKPEDTAVYYCNALFGSYPYYWFEYWGHGTQVTVSS,high polyreactivity
12,QVQLVESGGGLVQAGGSLRLSCAASGITFSSYAMGWSRQAPGKERELVAAIRRRGGTTYYADSVKGPFTISRDNAKNTVYLQMNSLKPEDTAVYYCAARSKSAYWGQGTQVTVSS,high polyreactivity
13,QVQLVESGGGLVQAGGSLRLSCAASGFIFTQNAMGWYRQAPGKERELVAVIRWNGGSTYYADSVKGRITISRDNAKNTVYLQMNSLKREDTAVYYCAAEFLWIVDYWGQGTQVTVSS,low polyreactivity
14,QVQLVESGGGLVQAGGSLRLSCAASGITLYRYVMGWYRQAPGKERELVADISGRGTSTYYADSVKGRFTISRDNAKNTVYLQMNSLKPEETAVYYCNAEYTKTGALVIPYTYYYAEDYWGQGTQVTVSS,low polyreactivity
15,QVQLVESGGGLVQAGGSLRLSCAASGRIFNLYDMGWYRQAPGKERELVAAIRIGDRTYYADSVKGRFTISRDNAKNTVYLQMNSLKPEDTAVYYCNREYLSNRDKRFYYWGQGTQVTVSS,low polyreactivity
16,QVQLVESGGGLVQAGGSLRLSCAASGRIFHYNAMGWYRQAPGKERELVAAISTGGSTNYADSVKGRFTISRDNAKNTVYLQMNSLKPEDTAVYYCAADHPVTYPTTKFDYWGQGTQVTVSS,low polyreactivity
17,QVQLVESGGGLVQAGGSLRLSCAPSGRIFYPYAMGWYRQAPGKERELVAAISSRGDSTYYADSVKGRFTISRDNAKNTVYLQMNSLKPEDSAVYYCAAVYGSFPTRLYYWGQGTQVTVSS,high polyreactivity
18,QVKLVDSGGGLVQAGGSLRLSCAASGNIFYRYAMGWYRQAPGKERELVAAISGNSGNTYYADSVKGRFTISRDNAKNTVYLQMNSLKPDDTAVYYCAAERRAFGHYSWGQGTQVTVSS,high polyreactivity
19,QVQLVESGGGLVQAGGSLRLSCAASGLTFVYNTMGWYSQAPGKERELVAAISSSGGTTYYADSVKGRFTISRDTAKNTVYLQMNSLKPEDTAVYYCAARPSGGYESTRTRDYWGQGTHVTVSS,low polyreactivity
20,QVQLVESVGGLVQAGGSLRLSCAASGFTFQYYALGWYRQAPGKERELVAAISWTGGRTYYADSVKGRFTISRDNAKNTVYLQMNSLKPEDTAVYYCNKVLYYYNSGEYDYWGQGTQVTVSS,high polyreactivity
21,QVQIVDSGVGLVQAGGSLRLSCAASGSTFLKNAMGWYRQAPGKERELVAAISYSTTPTYYADSVKGRFTFSRDNAKNTVYLQMNSLKPEDNAVYYCNIASYWGSGFDFWGLGTQVTVSS,low polyreactivity
22,QVQLVESGGGLVQAGGSLRLSCAASGLTFSVYAMGWYRQAPGKERELVAAISYSGDSTYADSVKGRFTISRDNAKNTVYLQMNSLKPEDTAVYYCNARWVRQGYRRWYDYWGQGTQVTVSS,low polyreactivity

row,Sequence,polyreactivity (PSR sort gate)
1,QVQLVESGGGLVQAGGSLRLSCAASGSTFSLYDMGWYRQAPGKERELVAAISSSGGGTYYADSVKGRFTISRDNAKKTVYLQMNSLKPEDTAVYYCAARFYYYPTKYDSWGQGTQVTVSS,high polyreactivity
2,QVQLVESGGGLVQAGGSLRLSCAASGITFRLYAMGWYRPAPGKERELVAAISKRGGSTYYADSVKGRFTISRDNAKNTVYLQMNSLKPEDTAVYYCAADSGWEHRYDYWGQGTQVTVSS,high polyreactivity
3,QVQLVESGGGLVQAGGSLRLSCAASGSIFQFYTMGWYRQAPGKERELVAAISSGGTRRYYADSVKGRFTISRDNAKNTVYLQMNSLKPEDTAVYYCAAPWSSSWSGVRTRMGYWGQGTQVTVSS,high polyreactivity
4,QVHLVESGGALVQAGGSLRLSCAASVIVFKRYAMGWYRQAPGKEREFVATISYTGGRTYYADSVKGRFTISRDNAKNTVYFQMNSLKPEDTAGYYCATLYRSSKHQPLDYWGQGTQVTVSS,high polyreactivity
5,QVQLVESGGGLVQAGGSLRLSCAASGGTFNQYAMGWYRQAPGKEREFVASISRRGGSTYYADSVKGRFTISRDNAKNTVYLQMNSLKPEDTAVYYCAADAFFRLDYYYWGQGTQVTVSS,high polyreactivity
6,QVQLVESAGGLVQAGGRLRLSCAASGSTFGIYAMGWYRQAPGKERELVAAISSGGSTNYADSVKGRFTISRDNAKNTVYLQMNSLKPEDTAVYYCAVESVYEYGGYVDSAYDYWGQGTQVTVSS,low polyreactivity
7,QVQLVESGGGLVQAGGSLRLSCAASGSTLDVYAMGWYRQAPGKERELVAAISWSVGSTYYAYSVKGRFKISRDNAKNTVYLQINRLKPEDTAVYNCAAEQYEYAYDGYDYWGQGTQVTVSS,high polyreactivity
8,QVHLVESGGGLVQAGGILLLSCAASGYDMGWYRQAPGKERELVAAISRGGSTSYADSVKGRFTISRDNAKNTVYLQMNSLKPEDTAVYYCAARYGSYRVGYDYWGQGTQVTVSS,low polyreactivity
9,QVQLVESGGGLVQAGGSLRLSCAASGSIFLYNAMGWYRQAPGKERELVAAISRSSTSTYYSDSVKGRFTISRDNAKNTVYLQMNSLKPEDTAVYYCAARGRVTYWGQGTQVTVSS,high polyreactivity
10,QVQLVESAGGLVQAGGSLSLSCAASGGMFTGYAMGWDRQAPGTERELVAAINTGGNTYYADSVKGRFTISRDNAKNTVYLQMNSLKPEDTAVYYCAAVYFPRSNTARRYGYWGQGTQVTVSS,high polyreactivity
11,QVQLVESGGGLVQAGGSLRLSCAASGRTFFWYVMGWYRQAPGKERELVATISYGGITYYADSVKGRFTISRDNAKNTVYLQMNSLKPEETALYYCAAKPSRSLYYYWGQGTQVTVSS,high polyreactivity
12,QVQLVESGGGLVQAGGSLRLSCAASGSTFRGYAMGCYRQAPGKEREFVASISLSGGTDYADSVKGRFTISRDNAKNTVYLQMNSLKPEDTADYYCAAGYPAVSDSIEHNFWGQGTQVTVSS,low polyreactivity
13,QVQLVESGGGLVQAGGSLRLSCAASGRICGYNSMGWYRQAPGKERELVAAISSSGGSTYYADSVKGRFTISRDYATNTVYVQMNSLKREATAVYYCAARIGYRSWAWDAYEYCGQGTQVTVSS,low polyreactivity
14,QVQLVESGGGLVRAGGSLRLSCAASGSIFKYYAMGWYRQAPGKDRELVAAISWSGGSTFYADSVKGRFTISRDNAKNTVYLQMNSLKPEDTAVFYCARYKLRSGRSGDHDVYWGQGTQVTVSS,high polyreactivity
15,QVQLVESGGGLVQAGGSLRLSCAASGRIFRGNAMVWSRQAPGKERELVASISWRGASTDYADSVKGRFTISRDNAKNTVYLQMNRMKPEDTAVYYCAARVVWRISVYYVIDYNYWGQGTQVTVSS,high polyreactivity
16,QVQLVESGGGLVQAGGSLRLSCAASGRIFYGYAMGWYRQAPGKERELVAGISYRGARTYYADSVKGRFTISRDNAKNTVYLQMNSLKPEDTAVYYCNAVPYYPFAFGALDYWGQGTQVTVSS,high polyreactivity
17,QVQLVESGGGLVQAGGSLRLSCAASGRIFTWNAMGWYRQAPGKERELVASISRSGTSTYYADSVKGRFTISRDNAKNSVYLQMNSLKAEDTAVYYCAAKRYGYKMYYWGQGTQVTVSS,high polyreactivity
18,QVQLVESGGGLVQAGGSLRLSCAASGFIFRDNAMGWYRQAPGKERELVAAISKSGGRTYYADSVKGRFTISRDNAKNTVYLQMNSLKPEDTAVYYCAKASRYWSLYYWGQGTQVTVSS,high polyreactivity
19,QVQLVESGGGLVQAGGSLRLSCAASGFTFDYYAMGWYRQAPGKERELVAAISSSGGSTYYADSVKGRFTISRDNAKNTVYLQMNSLKPEDTAVYYCATGHSKKYDYWGQGTQVTVSS,high polyreactivity
20,QVQLQESGGGLVQAGGSPRLSCAASDNIFPDSVMCWYRQAPGKERELVATIGFGATTNYADSVKGRFTISRDNAKNTVYLQMNSLKPEDTAVYYCAADPLNYEYFCYGGQGTQVTVSS,low polyreactivity
21,QVQLVESGGGLVQAGGSLRLSCAASGRIFAFYAMGWYRQAPGKERELVAAISWSGGSTYFADSVKGRFTISRDNAKNTVYLQMHSLIPEDTAVYYCAAYRTRGSAYPYDYWGQGTQVTVSS,high polyreactivity
